Earlier results on one substance are cited in publication PMC5729051.

As usually defined, the Kd is the constant that tells how readily two partners part at equilibrium.

In the data set the target is amyloid-beta oligomer (Homo sapiens) (UniProt P05067).

Consider “Cellular Prion Protein (PrPC) (from UniProt P04156)”, for which the Kd is 0.4 nM.
